Consider nine molecules from patent publication US20240167005A1, “MODIFIED SHIGELLA APYRASE AND USES THEREOF” (APIRAYS BIOSCIENCES AB, priority 2021, published 2024).

For data set [1], the system named is O=[N+]([O-])c1ccc(OP(=O)(O)O)cc1. The data set can be described thus: Affinity of pNPP to EIEC apyrase (Table 6). Type of data set: biochemical. As to conditions: other: EIEC apyrase, pH 7.5, 37.0 °C. An excerpt:
(§1) The formation of product. Para-nitro phenol was monitored colorimetrically at 405 nm using multi-mode spectrophotometer (Biotek instruments).
(§2) Respective colorimetric/fluorescence assays (mentioned above).

Data set [2] has as its system Nc1ncnc2c1ncn2[C@@H]1O[C@H](COP(=O)(O)OP(=O)(O)OP(=O)(O)O)[C@@H](O)[C@H]1O. The data set can be described thus: Affinity of ATP to EIEC apyrase (Table 6). Type of data set: biochemical. Conditions: other: EIEC apyrase, pH 7.5, 37.0 °C.
Text: as §2

Data set [3] concerns EIEC apyrase variant H116L. The data set can be described thus: Affinity of pNPP to EIEC H116L (Table 6). Type of data set: biochemical.
Text: as §1, §2

Data set [4] has as its target T1, wild-type Shigella flexneri apyrase, SEQ ID NO: 1 (Shigella flexneri, UniProt Q59909).
T1 sequence (Q59909 26-246): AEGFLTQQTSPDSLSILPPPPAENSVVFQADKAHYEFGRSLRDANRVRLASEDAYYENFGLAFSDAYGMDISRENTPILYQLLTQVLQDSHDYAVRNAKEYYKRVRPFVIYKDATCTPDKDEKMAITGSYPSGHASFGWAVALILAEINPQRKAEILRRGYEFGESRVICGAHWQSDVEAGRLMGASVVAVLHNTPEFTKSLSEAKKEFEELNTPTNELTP
The data set can be described thus: pNPP dephosphorylation (Example 3), wild type. Type of data set: biochemical. Conditions: 50 mM Tris, pH 7.5, 37° C., 15 min, 2 μg enzyme. Here is the method: (§3) Products: para Nitro phenol (PNP, yellow colour, absorbance at 405 nm) and phosphate • pNPP+Apyrase→PNP+Pi
(§4) To further study the capability of the mutant enzyme to hydrolyse pNPP, the substrate (pNPP) was titrated and incubated with the mutant apyrase. As controls, alkaline phosphatase (known to hydrolyse pNPP) and the wildtype enzyme were also included.
(§5) The enzymes (2 μg) were incubated with different concentrations of pNPP (dissolved in 50 mM Tris, pH 7.5) in a 100 μL reaction mixture. For alkaline phosphatase, pNPP was dissolved in carbonate buffer (pH 10.3). Control reaction with pNPP lacking WT, mutant apyrase and alkaline phosphatase was also included. These were incubated at 37° C. for 15 minutes and absorbance was taken at 405 nm.

Another data set has as its system alkaline phosphatase. Nature of the data set: pNPP dephosphorylation (Example 3), alkaline phosphatase. Type of data set: biochemical. As to conditions: carbonate buffer pH 10.3, 37° C., 15 min, 2 μg enzyme. Here is the method: as §3, §4, §5
In data set [5] the test system is Cc1ncc(C[n+]2csc(CCO[P@](=O)(O)OP(=O)(O)O)c2C)c(N)n1. The data set can be described thus: purified protein, by the assay type. As to conditions: other: L66V, TPP, 50 mM Tris-HCl pH 7.5, 37° C., 20 min, 500 ng enzyme.
Protocol: The kinetic curves were plotted and the Michaelis Menten constant (Km) was calculated using GraphPad Prism 5.0 software.
The test system of data set [6] is O=[N+]([O-])c1ccc(OP(=O)(O)O)cc1. The data set can be described thus: Affinity towards pNPP, L66V. Type of data set: biochemical, Shigella flexneri. As to conditions: other: L66V, 50 mM Tris-HCl pH 7.5, 37° C., 20 min, 500 ng enzyme.
Text: However, not all reactions successfully generated PCR products by agarose gel electrophoresis. The successful mutations were transformed into the expression host and proteins were expressed and purified to homogeneity by affinity chromatography.
Other substrates like 2-Glycerophosphate, Pyridoxal phosphate and phenyl phosphate were not hydrolysed by the mutants (Table 2 and FIG. 8A-B).
as §1, §2

For data set [7] the test system is unchanged. Nature of the data set: pNPP dephosphorylation (Example 3), mutant. It is filed as biochemical, Shigella flexneri. Conditions: other: mutant of Example 1, 50 mM Tris, pH 7.5, 37° C., 15 min, 2 μg enzyme. Here is the method:
In order to improve the activity of apyrase and its tolerance to high salt conditions, the inventors mutated the apyrase gene randomly using an error prone PCR method starting from the wild-type Shigella flexneri apyrase DNA sequence (SEQ ID NO: 4) as template. The method incorporates repeated copying of the template at high MgCl2 concentration (5 mM) with Taq polymerase. After every fourth cycle, one fifth of the reaction mixture was transferred to fresh PCR tube and the same process was repeated 22 times to obtain a product that will have randomly mutated nucleotides which can be identified by sequencing. The mutated gene was cloned in pET21a vector. The mutated DNA sequence obtained is presented as SEQ ID NO: 2, containing a total of 31 mutations leading to amino-acid changes (see SEQ ID NO:3 compared to the wild-type amino-acid sequence of SEQ ID NO: 1).
as §3
To further study the capability of the mutant enzyme to hydrolyse pNPP, the substrate (pNPP) was titrated and incubated with the mutant apyrase. […]
The enzymes (2 μg) were incubated with different concentrations of pNPP (dissolved in 50 mM Tris, pH 7.5) in a 100 μL reaction mixture. […] These were incubated at 37° C. for 15 minutes and absorbance was taken at 405 nm.

Data set [8] can be described thus: pNPP dephosphorylation assay (Example 3). It is filed as biochemical. Conditions: 2 μg enzyme, 3 mM pNPP, 50 mM Tris pH 7.5, 37° C., 15 minutes, FIG. 5. Here is the method:
Wild-type and mutant apyrase from Example 1 (2 μg each) were incubated with 3 mM pNPP (pNPP was dissolved in 50 mM Tris pH 7.5) in a 100 μL reaction mixture. Control reaction with pNPP lacking WT and mutant apyrase was also included. These were incubated at 37° C. for 15 minutes and absorbance was taken at 405 nm.
as §4, §5

The nature of data set [9]: Whole cell ATP degradation activity assay (periplasmic samples, AMFAS). It is filed as biochemical. As to conditions: induced cells, lysozyme/EDTA, 37° C., 30 minutes. Here is the method: As a crude assay for confirming expression of active enzyme, a whole cell ATP degradation activity assay was performed. 100 mM ATP was prepared in 50 mM Tris, pH 7.5. After dissolution, the pH was adjusted to 7.5 using NaOH. Pellets from 1 mL culture of induced cells were taken and washed twice with saline containing 1 mM Calcium chloride. The cells were treated with Lysozyme and EDTA to lyse the cell wall to release the periplasmic contents.
150 μL of 40 mM EDTA and 150 μL of 10 mM ATP was added to the pellet and mixed well, followed by incubation at 37° C. for 30 minutes.

A short description of data set [10]: ATP hydrolysis using purified recombinant apyrase (AMFAS, Example 2). Type of data set: biochemical. Here is the method:
A titrated series of ATP solutions from 100 mM to 0.01 mM in 50 mM Tris, pH 7.5 were prepared and incubated with 700 ng of Apyrase (mutant prepared in Example 1 and wild-type Shigella flexneri apyrase as control) for 30 minutes at 37° C. (100 μL reaction). After the incubation, 100 μL AMFAS reagent was added and OD was taken at 630 nm using multimode reader (Biotek instruments). The color formation is proportional to the amount of ATP degraded (dephosphorylated to ADP or AMP). […] Specific activity at 10 mM ATP was determined as 6.3 μmoles/min/mg for the mutant apyrase.

Data set [11] in a line: TPP assay / affinity (Examples 4-5). Conditions: 5.0 mM TPP, 20 minutes, 37° C.; FIG. 8B, 9C. It is filed as biochemical. Here is the method:
A stock of freshly prepared TPP (50 mM) was prepared before performing every assay. […] Hydrolysis of Thiamine pyrophosphate (TPP) releases Thiamine, which forms a thiochrome fluorophore on addition of hydrogen peroxide and horse radish peroxidase (HRP) in alkaline conditions (NaOH-HRP-H2O2-1M NaOH, 5 U/mL HRP, 50 mM H2O2 mixed in a volumetric ratio of 3:1:1). Fluorescence was measured using multi-mode spectrophotometer (Biotek instruments) with excitation at 368 nm and emission at 450 nm.
as §2

The conditions of data set [12]: Bhargava et al. Current Science 1995; cited from earlier work.
A short description of data set [13]: pNPP assay / affinity (Examples 4-5). It is filed as biochemical. As to conditions: 2.0 mM pNPP, 20 minutes, 37° C.; FIG. 8A, 9B.
Text: as §1, §2

Numbering of substitutions follows the chain as printed. Numbers in names are those of the source.

The term Km denotes the substrate concentration at which the rate is half of its maximum.

Take EIEC apyrase (Escherichia coli): the figures for the Km in [1] and in [2] were 25.0 mM and 0.021 mM, respectively.

As to `O=[N+]([O-])c1ccc(OP(=O)(O)O)cc1` [pNPP, para-Nitrophenylphosphate], the Km worked out at 3.5 mM in data set [3] and 8.4 mM in the data set on alkaline phosphatase. The “Km for pNPP” value in data set [4] is “Too low affinity”.

Turning to “Shigella flexneri apyrase (ApiOne, SEQ ID NO: 1) ApiTwo mutant L66V (Shigella flexneri; L66V)”, the Km came to 5.6 mM in data set [5] and 0.76 mM in data set [6].

On to “Shigella flexneri apyrase, mutant apyrase of Example 1, SEQ ID NO: 3 (S50N, F54V, G63R, L66V, N70Q, E77V, A791, D90T, S97T, L108M, Q113N, V120R, K124R, Y127Q, P143R, 1151L, F162N, A167G, N174Q, K177R, L182F, G184A, W199Y, G206R, V213A, N219K, F223W, L227S, F234Y, T239Q, E243D) (Shigella flexneri; A167G/A79I/D90T/E243D/E77V/F162N/F223W/F234Y/F53V/G185A/G206R/G63R/I151L/K124R/K178R/L108M/L182F/L227S/L66V/N174Q/N219K/N70Q/P143R/Q113N/S50N/S97T/T239Q/V120R/V213A/W199Y/Y127Q)”, for which the Km in [7] turned out to be 2.1 mM.

B1: Mutant apyrase (protein)
chain: MKTKNFLLFCIATNMIFIPSANALKAEGFLTQQTSPDSLSILPPPPAENNVVVQADKAHYEFRRSVRDAQRVRLASVDIYYENFGLAFSTAYGMDITRENTPILYQLMTQVLNDSHDYARRNAREYQKRVRPFVIYKDATCTRDKDEKMALTGSYPSGHASNGWAVGLILAEIQPQRRAEIFRRAYEFGESRVICGAHYQSDVEARRLMGASAVAVLHKTPEWTKSSSEAKKEYEELNQPTNDLTPLEHHHHHH
modifications: Synthetic construct mutated variant
In the case of B1, the pNPP hydrolysis entry in data set [8] (listed as mutant) is on record as “has acquired the ability to hydrolyse pNPP”; in data set [8] (listed as mutant apyrase), “considerable activity”. Besides, the “ATP hydrolysis by periplasmic fraction” value in data set [9] is “can hydrolyse ATP similar to the WT apyrase”. Besides, in data set [10] (ATP 100 mM to 0.01 mM, 37° C., FIG. 4), the “ATP degradation activity compared with wild-type” value is “indistinguishable from the wild-type enzyme”. Besides, the Specific activity in data set [10] (at 10 mM ATP) came out at 6.3 µmol/min/mg.

B2: ApiOne: wild-type Shigella flexneri apyrase, SEQ ID NO: 1, termed ApiOne (protein, listed as Shigella flexneri)
chain: MKTKNFLLFCIATNMIFIPSANALKAEGFLTQQTSPDSLSILPPPPAENSVVFQADKAHYEFGRSLRDANRVRLASEDAYYENFGLAFSDAYGMDISRENTPILYQLLTQVLQDSHDYAVRNAKEYYKRVRPFVIYKDATCTPDKDEKMAITGSYPSGHASFGWAVALILAEINPQRKAEILRRGYEFGESRVICGAHWQSDVEAGRLMGASVVAVLHNTPEFTKSLSEAKKEFEELNTPTNELTP
For the molecule B2, the pNPP hydrolysis result in [8] is on record as “not active”; in data set [8] (listed as wildtype enzyme) it was “lacks such activity”. Besides, the “Hydrolysis of TPP (in words)” value in [11] was “no detectable activity”. The “Hydrolysis of pNPP” value in data set [12] is “does not hydrolyse”.

B3: E77V: Shigella flexneri apyrase (SEQ ID NO: 1) with single substitution E77V (protein, listed as Shigella flexneri)
chain: B2 chain with E77V
As for B3, the “Hydrolysis of TPP (in words)” value in data set [11] is reported as “could hydrolyse”. For the same molecule, in data set [13], the “Hydrolysis of pNPP (in words)” value is listed as “could hydrolyse”.

B4: F53V: Shigella flexneri apyrase (SEQ ID NO: 1) with single substitution F53V (protein, listed as Shigella flexneri)
chain: B2 chain with F53V
On to B4, for which, in data set [11], the “Hydrolysis of TPP (in words)” value was “could hydrolyse”. Also, in data set [13], the “Hydrolysis of pNPP (in words)” value is listed as “could hydrolyse”.

B5: L66V (protein, listed as Shigella flexneri)
chain: B2 chain with L66V
Regarding B5, the “Hydrolysis of TPP (in words)” value in [11] is on record as “could hydrolyse”. In data set [13], the “Hydrolysis of pNPP (in words)” value was “could hydrolyse”.
